This note sets out measurements from the DeepSol protein solubility set.

The series is described as follows: soluble on expression in E. coli; label from the status in PepcDB or PDB records.
For the sequence “MKEANLLIDLRGEPGINCNGFCKFCYFRKVNKNNPQPFGCRYCQFTVGCDYCMYSVREINGDFIPLPFALMELQSSLLFKRYSKVNLTAGGDVSCYPQLEELCKAINNIGLKIHLGYTSGKGFDNVEIAKNLVDYGVDEVTFSVFSTNPKLRKEWMNDKNAETALKCLRYFCENCEVHCAIIVIPGVNDGEELKKTVSDLVDWGANAVILMRFANSEEQGLILGNAPLIEGIKPHSVEEFKNIVDEIHNEFGDYIRVTGTPLHDPVAGTPFALAKEENSHILERLKDKINGEATIITGNVAYPFLKKIFDETSVNVVKVNKDIADLITAKDLEKLDLKDVKETVFIPPKAFVHDRVAEEILRRDGVDRIVVRGVEQLTLDGEVSGIYTREEALKFEIEAFEELIGMINFFGMKKQ”, the “soluble on expression in E. coli” value is reported as “not soluble”.

As to “MKEEKLVTLAIHSYEKAQILKSLLETEGIEAYLHNVNQIQPVISAGVRVRIKETDLPRALSIIEDNKWDQEDPKKRAKNTEEYVLIPVDFSEYTMKICELGFNFAARRGLRVVLMHVYISPFFSTPLTVGDTAVFQLSNEVSLRKEYQRVQR”, the “soluble on expression in E. coli” value is reported as “not soluble”.

“MKEENVGDFTLHYGVFEEVEPEELRNLADMLRQRTKKDVVFIASRKGDKINFVIGVSKEISDKVNAKEVIREVGKVLKGGGGGRADLAQGGGKAPDKFPEAVKLLKEILSG”: the “soluble on expression in E. coli” value is “soluble”.

For “MKEKIPFYNEKEFHYMMKKTKKGTFSGWYIINPENNSVEFSGSFNRQFKLNKPVIPVNTEYVTRKEFNEYKDSNDQRLTKIENKVDKLEIKVDKLEKKVDKLEVKVDKLVETVNAQGEDLNNFKVEVRGTLQSQGETLQLILQTLQGMSKRLDSVEGRLDSMDGRLDSMETRLDKIDPLKLEHHHHHH”, the “soluble on expression in E. coli” value is given as “not soluble”.

With “MKEKKKEIEKLLARPDLTPEQMKNYGMEYAKIEEIENITNRIKETQEFIELLREEGENELEIEKYEKELDQLYQELLFLLSPEASDKAIVEIRPGTGGEEAALFARDLFRMYTRYAERKGWNLEVAEIHETDLGGIREVVFFVKGKNAYGILKYESGVHRVQRVPVTESGGRIHTSTATVAVLPEIEEKDIEIRPEDLKIETFRASGHGGQYVNKTESAVRITHLPTGIVVSCQNERSQYQNKQTALRILRARLYQLQKEQKEREISQKRKSQIGTGERSEKIRTYNFPQNRVTDHRINYTSYRLQEILDGDLDEIISKLIEHDIENNLEEVLGIGASVEEK”, the “soluble on expression in E. coli” value is “soluble”.

As for “MKEKYRHSLKARFFLKDNFLKSEPVFWFHACSYGEVKSLEPIIHALKEPILISVTTNTGFELAAQTYQHSKHIEVRYLPFETLLFAWKKNLKRLKTLVVTEAELWFNVFDTAQKLGAKTMLINARISVRSYPKYQRFSFFYALLFKRIDLILAQSKEDKKRLLNLGAKKVVDFLNIKRFSKPLEHHHHHH”, the “soluble on expression in E. coli” value was “not soluble”.

“MKESNSRREFLSQSGKMVTAAALFGTSVPLAHAAVAGTLNCEANNTMKITDPHYYLDNVLLETGFDYENGVAVQTRTARQTVEIQDGKIVALRENKLHPDATLPHYDAGGKLMLPTTRDMHIHLDKTFYGGPWRSLNRPAGTTIQDMIKLEQKMLPELQPYTQERAEKLIDLLQSKGTTIARSHCNIEPVSGLKNLQNLQAVLARRQAGFECEIVAFPQHGLLLSKSEPLMREAMQAGAHYVGGLDPTSVDGAMEKSLDTMFQIALDYDKGVDIHLHETTPAGVAAINYMVETVEKTPQLKGKLTISHAFALATLNEQQVDELANRMVVQQISIASTVPIGTLHMPLKQLHDKGVKVMTGTDSVIDHWSPYGLGDMLEKANLYAQLYIRPNEQNLSRSLFLATGDVLPLNEKGERVWPKAQDDASFVLVDASCSAEAVARISPRTATFHKGQLVWGSVAG”: the “soluble on expression in E. coli” value is given as “soluble”.

Consider “MKETEILNRAYNYMCTYHKDDATGHDIAHINRVLRLATYIAEQEQSQHMLTIQLASLLHDTVDSKLTNHEKALTKLKSFLKDLQLPKEQQQHILHIIKHISYRHGQNNEVSLTLEGQIVRDADRLDAIGAIGIARTFQFAGHFNEPMWVEHSTKHITETDDAHYDQWSPSAIKHFYEKLLKLKSLMHTETAKQLAAQRHQYMENFINQFFEEWYFLEHHHHHH”, for which the “soluble on expression in E. coli” value is “soluble”.

For “MKEYLTRSNISYFSIGSGTPIIFLHGLSLDKQSTCLFFEPLSNVGQYQRIYLDLPGMGNSDPISPSTSDNVLETLIEAIEEIIGARRFILYGHSYGGYLAQAIAFHLKDQTLGVFLTCPVITADHSKRLTGKHINILEEDINPVENKEYFADFLSMNVIINNQAWHDYQNLIIPGLQKEDKTFIDQLQNNYSFTFEEKLKNINYQFPFKIMVGRNDQVVGYQEQLKLINHNENGEIVLLNRTGHNLMIDQREAVGFHFDLFLDELNSNN”, the “soluble on expression in E. coli” value is reported as “soluble”.

Consider “MKFGKTIAVVLASSVLLAGCTTDKKEIKAYLKQVDKIKDDEEPIKTVGKKIAELDEKKKKLTEDVNSKDTAVRGKAVKDLIKNADDRLKEFEKEEDAIKKSEQDFKKAKSHVDNIDNDVKRKEVKQLDDVLKEKYKLHSDYAKAYKKAVNSEKTLFKYLNQNDATQQGVNEKSKAIEQNYKKLKEVSDKYTKVLNKVGKEKQDVDQFK”, for which the “soluble on expression in E. coli” value was “soluble”.

As for “MKFKSRVQMLNYVIGKKPDIMKTVDRRAEKEGVTDDNRLLDYKLLVISVLDAEAVYDEDRPIEEKKFSTSQEVDKYLETRFKEHMDSAWKEMFNK”, the “soluble on expression in E. coli” value is “not soluble”.

On to “MKGEGVIVGILNKNFSLSKGDLDVVSLGEILVDMISTEEVNSLSQSREYTRHFGGSPANIAVNLSRLGKKVALISRLGADAFGNYLLDVLKGEQIITDGIQQDKERRTTIVYVSKSTRTPDWLPYREADMYLQEDDIIFELIKRSKVFHLSTFILSRKPARDTAIKAFNYAREQGKIVCFDPCYRKVLWPEGDDGAGVVEEIISRADFVKPSLDDARHLFGPDSPENYVKRYLELGVKAVILTLGEEGVIASDGEEIIRIPAFSEDAVDVTGAGDAFWSGFICGLLDGYTVKRSIKLGNGVAAFKIRGVGALSPVPSKEDIIKEYNI”, for which the “soluble on expression in E. coli” value is “soluble”.

Regarding “MKGRWAKYVATGVMLAMLAACSSKPTDRGQQYKDGKFTQPFSLVNQPDAVGAPINAGDFAEQVDQIRSASPRLYTNQSNVYNAVQNWLRSGGDTRTMRQFGIDAWQMEGTDNYGNVQFTGYYTPVVQARHTRQGAFQYPIYSMPPKRGRLPSRAQIYAGALSDKYILAWSNSLMDNFIMDVQGSGYIDFGDGSPLNFFSYAGKNGWPYRSIGKVLIDRGEVKKEDMSMQAIREWGEKHSEAEVRELLEQNPSFVFFKPQSFAPVKGASAVPLIGRASVASDRSIIPPGTTLLAEVPLLDNNGKFSGQYELRLMVALDVGGAIKGQHFDIYQGIGPDAGHRAGWYNHYGRVWVLKSAPGAGNVFSG”, the “soluble on expression in E. coli” value was “soluble”.

With “MKHFRKELWFETRQRRQFINITPTVRECLRESGIREGLLLCNAMHITASVFINDDESGLHHDFEVWLEGLAPEKPYDRYRHNGYEDNADAHLKRTVMGREVVVAVTAGELDLGPWEQIFYGEFDGKRRKRVLIKIIGELEHHHHHH”, the “soluble on expression in E. coli” value is listed as “not soluble”.

For “MKHHHHHPMVPSYDSFDSEDYPAALPNHKPKGTFKDYVRDRADLNKDKPVIPAAALAGYTGSGPIQLWQFLLELLTDKSSQSFISWTGDGWEFKLSDPDEVARRWGKRKNKPKMNYEKLSRGLRYYYDKNIIHKTAGKRYVYRFVSDLQSLLGYTPEELHAMLDVKPDADE”, the “soluble on expression in E. coli” value is listed as “soluble”.

With “MKHSHEEIRKIIPEMRRVQQIHFIGIGGAGMSGIAEILLNEGYQISGSDIADGVVTQRLAQAGAKIYIGHAEEHIEGASVVVVSSAIKDDNPELVTSKQKRIPVIQRAQMLAEIMRFRHGIAVAGTHGKTTTTAMISMIYTQAKLDPTFVNGGLVKSAGKNAHLGASRYLIAEADESDASFLHLQPMVSVVTNMEPDHMDTYEGDFEKMKATYVKFLHNLPFYGLAVMCADDPVLMELVPKVGRQVITYGFSEQADYRIEDYEQTGFQGHYTVICPNNERINVLLNVPGKHNALNATAALAVAKEEGIANEAILEALADFQGAGRRFDQLGEFIRPNGKVRLVDDYGHHPTEVGVTIKAAREGWGDKRIVMIFQPHRYSRTRDLFDDFVQVLSQVDALIMLDVYAAGEAPIVGADSKSLCRSIRNLGKVDPILVSDTSQLGDVLDQIIQDGDLILAQGAGSVSKISRGLAESWKN”, the “soluble on expression in E. coli” value is “soluble”.

With “MKIAGLKQLNTALKEAASGGFSRQASRWLEECGQDFLEIVQSELISTQTIDTEKLLSSFEKGAEDNLWIVQSGGLSLEVGTQLDYASFLNDGHWTSKQDVRWVPGRFQGSRFIYDPAASTGMALKRKWIPGTGYWDHALLLYEQLFEKSLESKLRQWLKKL”, the “soluble on expression in E. coli” value is on record as “not soluble”.

For the sequence “MKIALINENSQASKNHIIYDSLKEATDKKGYQLFNYGMRGEEGESQLTYVQNGLMAAILLNTKAVDFVVTGCGTGVGAMLALNSFPGVVCGLAVDPTDAYLYSQINGGNALSIPYAKGFGWGAELTLKLMFERLFAEEMGGGYPRERVIPEQRNARILNEVKQITHNDLMTILKIIDQDFLKDTISGKYFQEYFFENCQDDEVAAYLKEVLA”, the “soluble on expression in E. coli” value is “not soluble”.

Turning to “MKIAYLGPKGSFSHHVVQTAFPHEELQAFANITDVIKAYEQGLVNYSVVPVENSIEGSVHETLDYLFHQAHIQAVAEIVQPIHQQLMVVPGHTKIEKIFSHPQALAQGKKFIDEQYPEAQIEVTASTAYAARFISEHPDQPFAAVAPRSSAEEYGLELIAEDIQEMEANFTRFWVLGAEKPSIPLQAQTEKMSLALTLPDNLPGALYKALSTFAWRGIDLTKIESCPLKTALGEYFFIIDVDYTDKDLVHFAQKELEAIGIQYKILGAYPIYPISDHGKERR”, the “soluble on expression in E. coli” value was “soluble”.

On to “MKIGIIGAMQQEVAILKDLIEDVQEVNQAGCTFYSGQIQGVDVVLLQSGIGKVSAALGTALLISQYAPDVVINTGSAGGFDASLNVGDVVISSEVRHHDADVTAFGYEIGQMAGQPAAFKADEKLMTVAEQALAQLPNTHAVRGLICTGDAFVCTAERQQFIRQHFPSVVAVEMEASAIAQTCHQFKVPFVVVRAISDVADKESPLSFEEFLPLAAKSSSAMVLKMVELLK”, for which the “soluble on expression in E. coli” value is given as “soluble”.

Consider “MKIIILHGLYMHGLVMQPLSQKLRKLGYETQVLSYNTVAIDESSLFDSIDHSLNPLTANVLVGHSLGGLMIKRYLANRKPTTSLISHVVAIGSPLKGASIVGRIQDLGLGAILGNSPHHGLNKHHDAWAFPQKLGSIAGTVPIGARPLLIRNDNTMSDGTVTVEETRLDGMQDHIEVKQTHTSLIYNTFVPQQIDHFIRTDYFCR”, for which the “soluble on expression in E. coli” value is “not soluble”.

“MKIKACIFDMDGTLVNSIMDIAFSMNSALSNLGYSKIELSKFNALVGRGFNKFVIDTLKLLSLEHDNPNLQEKLYKEFVKEYNKNLSFQTKPYENIKPLLETMNKLNIPIGILSNKNHEELINLVKNIFGNILFFEIRGYSKNFPPKPDPENALDMILELNAQKEEIAYIGDSDVDMLTALNAGFMPIGVSWGFRSVQELKESGAKHIIHNPLELLDLIK”: the “soluble on expression in E. coli” value is listed as “not soluble”.

As to “MKIKSIRKAVLLLALLTSTSFAAGKNVNVEFRKGHSSAQYSGEIKGYDYDTYTFYAKKGQKVHVSISNEGADTYLFGPGIDDSVDLSRYSPELDSHGQYSLPASGKYELRVLQTRNDARKNKTKKYNVDIQIK”, the “soluble on expression in E. coli” value was “soluble”.
